Source: patent publication US20090281028A1
Like-named read-outs stand apart in the source and are kept apart here. Ends that are not written are not given here.

Tests used:
Assay in all cases: cell-based or functional assay
[1] = target: human Kv1.3 voltage-gated potassium channel (human) (UniProt P22001)
[2] = target: human Kv1.3 channel (human) (UniProt P22001)
[3] = target: human Kv1.1 channel (human) (UniProt Q09470)
[4] = target: human Kv1.1 voltage-gated potassium channel (human) (UniProt Q09470)
human Kv1.1 voltage-gated potassium channel (human), sequence (Q09470 whole entry): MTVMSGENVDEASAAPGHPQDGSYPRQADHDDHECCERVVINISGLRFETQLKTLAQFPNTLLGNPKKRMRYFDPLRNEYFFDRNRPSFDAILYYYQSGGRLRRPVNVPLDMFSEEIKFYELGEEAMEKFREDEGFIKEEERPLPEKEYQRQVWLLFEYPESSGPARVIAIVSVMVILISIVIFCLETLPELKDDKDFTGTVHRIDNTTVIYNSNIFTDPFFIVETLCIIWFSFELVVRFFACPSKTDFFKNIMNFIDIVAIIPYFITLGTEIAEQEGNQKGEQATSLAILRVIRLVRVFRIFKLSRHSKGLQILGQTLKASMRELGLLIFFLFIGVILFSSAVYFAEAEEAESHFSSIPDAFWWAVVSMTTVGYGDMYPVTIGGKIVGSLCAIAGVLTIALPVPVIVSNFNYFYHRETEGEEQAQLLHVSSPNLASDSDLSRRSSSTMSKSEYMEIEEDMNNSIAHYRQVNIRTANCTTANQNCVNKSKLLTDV

[5] = target: human Kv1.3 channel (human) (UniProt P22001); remark: listed apart in the source

human Kv1.3 voltage-gated potassium channel (human), sequence (P22001 whole entry): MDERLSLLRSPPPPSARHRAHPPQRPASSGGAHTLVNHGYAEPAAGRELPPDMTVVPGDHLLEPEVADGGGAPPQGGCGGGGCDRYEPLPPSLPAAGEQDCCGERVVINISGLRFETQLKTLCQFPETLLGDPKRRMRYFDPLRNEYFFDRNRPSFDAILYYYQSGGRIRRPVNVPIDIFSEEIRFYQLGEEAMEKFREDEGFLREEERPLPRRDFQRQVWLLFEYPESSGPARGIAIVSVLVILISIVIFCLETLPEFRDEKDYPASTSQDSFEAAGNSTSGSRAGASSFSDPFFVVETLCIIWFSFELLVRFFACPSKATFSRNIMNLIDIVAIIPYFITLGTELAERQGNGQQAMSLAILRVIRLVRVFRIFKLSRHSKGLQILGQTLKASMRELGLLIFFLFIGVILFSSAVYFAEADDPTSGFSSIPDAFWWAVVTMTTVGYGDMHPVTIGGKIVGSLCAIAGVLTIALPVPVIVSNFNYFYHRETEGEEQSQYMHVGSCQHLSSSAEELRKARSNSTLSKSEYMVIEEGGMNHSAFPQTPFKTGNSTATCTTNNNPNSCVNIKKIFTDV
human Kv1.3 channel (human), sequence (P22001 whole entry): as above
human Kv1.1 channel (human), sequence (Q09470 whole entry): as the sequence (Q09470 whole entry) above

Q: What does the source list for 20k PEG-OSK1[Ala29, 1Nal34] (peptide)?
A: WB/IFNg (IC50, nM); human whole blood [1]: 0.081 nM; WB/IL-2 (IC50, nM); human whole blood [1]: 0.049 nM

Q: 20k PEG-ShK (peptide) was tested. Which WB/IFNg (IC50, nM); human whole blood [1] did it give?
A: 0.065 nM

Q: And the WB/IL-2 (IC50, nM); human whole blood [1]?
A: 0.046 nM

Q: For E. coli-derived Fc-L-OSK1 (Fc fusion), which Kv1.3 IC50 by WCVC (nM), whole cell patch clamp, HEK293/Kv1.3 cells [2] is on record?
A: 3.2 nM

Q: For “E. coli-derived Fc-L-ShK[1-35] (Fc fusion)”, which Kv1.3 IC50 by WCVC (nM), whole cell patch clamp, HEK293/Kv1.3 cells [2] is on record?
A: 1.4 nM

Q: “E. coli-derived Fc-L-ShK[2-35] (Fc fusion)” was tested. Which Kv1.3 IC50 by IWQ (nM), IonWorks planar patch clamp, CHO/Kv1.3 cells [2] did it give?
A: 2.8 nM

Q: And the Kv1.3 IC50 by WCVC (nM), whole cell patch clamp, HEK293/Kv1.3 cells [2]?
A: 1.3 nM

Q: Which Kv1.3 IC50 by IWQ (nM), IonWorks planar patch clamp, CHO/Kv1.3 cells [2] does the source give for “E. coli-derived ShK[2-35]-L-Fc (Fc fusion)” here?
A: 4.9 nM

Q: “E. coli-derived Shk[1-35]-L-Fc (Fc fusion)” was tested. Which Kv1.3 IC50 by IWQ (nM), IonWorks planar patch clamp, CHO/Kv1.3 cells [2] did it give?
A: 2.4 nM

Q: With “Fc-L5-ShK[2-35] (CHO-derived, bivalent dimeric) (Fc fusion)” as the molecule, how does the IC50 of block of the outward potassium current, whole cell patch clamp [2] read?
A: 0.1 nM

Q: Which hKv1.1: IC50 [pM], block of current, whole cell patch clamp [3] does the source give for Fc-L10-OSK1 (Fc fusion) here?
A: 41600 pM

Q: Which fold loss of potency (IC50 of Kv1.3 current block) against synthetic OSK1 [2] does the source give for “Fc-L10-OSK1 (stably expressed in CHO cells) (Fc fusion)” here?
A: 5 fold

Q: With “Fc-L10-ShK[2-35] (CHO-derived, bivalent dimeric) (Fc fusion)” as the molecule, how does the IC50 of block of the outward potassium current, whole cell patch clamp [2] read?
A: 0.115 nM

Q: With “Fc-L25-ShK[2-35] (CHO-derived, bivalent dimeric) (Fc fusion)” as the molecule, how does the IC50 of inhibition of human Kv1.3, whole cell patch clamp [2] read?
A: 0.15 nM

Q: Which results are given for GGGGS-Osk1 (peptide)?
A: WB/IFNg (IC50, nM); human whole blood [1]: 2.2 nM; WB/IL-2 (IC50, nM); human whole blood [1]: 1.36 nM

Q: For “OSK1 (wild-type), toxin peptide of Orthochirus scrobiculosus scorpion venom”, which Kv1.1 (IC50, pM); whole cell patch clamp ePhys [4] is on record?
A: 202 pM

Q: And the Kv1.3 (IC50, pM); whole cell patch clamp ePhys [1]?
A: 39 pM

Q: What about the Kv1.3 Selectivity (=Kv1.1/Kv.3 IC50) [1] of the same molecule?
A: 5 fold

Q: How did the WB/IFNg (IC50, nM); human whole blood [1] turn out when OSK1-K16, D20 (peptide) was run?
A: 1.32 nM

Q: And the WB/IL-2 (IC50, nM); human whole blood [1]?
A: 1.58 nM

Q: “PEG-OSK1 (N-terminally 20 kDa PEGylated synthetic OSK1) (peptide)” was tested. Which peak IC50 of block of the outward potassium current, whole cell patch clamp [2] did it give?
A: 1.28 nM

Q: Synthetic OSK1 (peptide) was tested. Which hKv1.1: IC50 [pM], block of current, whole cell patch clamp [3] did it give?
A: 160 pM

Q: And the hKv1.3: IC50 [pM], block of current, whole cell patch clamp [2]?
A: 39 pM

Q: And the selectivity ratio hKv1.1/hKv1.3 (IC50) [2]?
A: 4 fold

B1: synthetic ShK[2-35] (peptide)
peptide: SCIDTIPKSRCTAFQCKHSMKYRLSFCRKTCGTC
modifications: not fully specified; ends and bridges not checked
Q: Which IC50 of block of the outward potassium current, whole cell patch clamp [5] does the source give for B1 here?
A: 0.049 nM

B2: 20K PEG-ShK[1-35] (peptide)
peptide: RSCIDTIPKSRCTAFQCKHSMKYRLSFCRKTCGTC
modifications: not fully specified; ends and bridges not checked
Q: Which peak IC50 of block of the outward potassium current, whole cell patch clamp [5] does the source give for B2 here?
A: 0.169 nM
